Publication PMC11360484 (Toxins, 2024)

Target: T1, recombinant ecarin (rEcarin), SVMP PIII prothrombin activator from Echis pyramidum leakeyi (Echis pyramidum leakeyi (Kenya; entry …)
T1 construct: also called His10-tagged recombinant ecarin
Experiment: BLI; Octet HTX; […]; 30 C; PBS with 0.1% TWEEN 20 and 0.1% BSA; 180 s association, 180 s dissociation; 1:1 model, […]
Conditions: both partners purified

T1 sequence (heavy, as listed by the source): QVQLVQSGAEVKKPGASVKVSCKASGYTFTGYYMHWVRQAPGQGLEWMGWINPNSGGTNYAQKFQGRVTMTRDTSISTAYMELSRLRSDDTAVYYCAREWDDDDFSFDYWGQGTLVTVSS

B1: H11 IgG1 (synthetic human antibody against rEcarin) (antibody, V domains shown)
VH: not shown
VL: QSALTQPASVSGSPGQSITISCTGTSSDVGGYNYVSWYQQHPGKAPKLMIYEVSNRPSGVSNRFSGSKSGNTASLTISGLQAEDEADYYCSSYTSSSTLVVFGGGTKLTVL
notes: copies: 2 + 2
Kd: 0.087 ± 0.008 µM
